In US20230220098A1, “THERAPEUTIC DRUG FOR POLYCYTHEMIA” (PERSEUS PROTEOMICS INC., priority 2019, published 2023):

How the values were obtained:
[1] = target: T1, Tf-TfR binding (Homo sapiens, UniProt P02786); test: Tf-TfR binding inhibition ELISA (HRP-labeled Tf on solid-phase sTfR); settings: dose 100 ng/mL; FIG. 3
T1 construct: A human TfR extracellular domain (the amino acids at positions 89 to 760); made in house; host or cells: Expi293 cells
Description: The Tf-TfR binding inhibitory activity of an antibody can be measured according to the method described in the after-mentioned “Example 2(2): Comparison between TfR436 antibody and antibodies of other companies in terms of Tf-TfR binding inhibition.” A TfR solution is dispensed into a substrate (a 96-well plate, etc.) and is then left at rest to obtain a solid phase, and thereafter, blocking is carried out. Subsequently, an HRP-labeled Tf solution is dispensed into the substrate, and an antibody is further added thereto, so that they are allowed to react with each other at room temperature. Thereafter, the substrate is washed, and a coloring reagent (TMB, etc.) is then added thereto, so that they are allowed to react with each other. After that, the absorbance is measured using a plate reader. By performing the above-described operations, the Tf-TfR binding inhibitory activity of the antibody can be evaluated.
The sTfR described in Example 1 was adjusted to a concentration of 5.0 μg/mL by addition of PBST, and the diluted solution was then dispensed into MaxiSorp 96-well plate (Nunc) in an amount of 100 μL/well. Thereafter, it was left at rest at 4° C. overnight to obtain a solid phase. […] Thereafter, the absorbance at 450 nm (ref. 620 nm) was measured.

[2] = system: HYDREA (registered trademark)-administered patient-derived hematopoietic stem cells; test: Erythroblast colony assay, HYDREA-administered patients; type: cell-based, human
Description: The peripheral blood of a PV patient, which had been obtained by phlebotomy, was dispensed into three 50-mL centrifuge tubes in an amount of 20 mL each, and an equal amount of PBS (Gibco) was then added to each tube, followed by mixing. Thereafter, 15 mL of LymphoSep, Lymphocyte Separation Media (MP Biomedicals™) was dispensed into […] novel 50-mL centrifuge tubes, and the peripheral blood diluted with PBS was then slowly added thereto in an amount of 30 mL each, and the obtained mixture was then centrifuged at 1,500 rpm at room temperature for 30 minutes. After completion of the centrifugation, the plasma as a supernatant was removed, and a PBMC layer was collected by transfer pipetting. The collected PBMC layer was suspended in 20 mL of PBS+2% FBS (Gibco). The thus obtained suspension was further centrifuged at 1350 rpm at room temperature for 10 minutes, a supernatant was then removed, and the residue was then suspended in 1 to 5 mL of IMDM (Nacalai Tesque)+2% FBS. Using 0.2% Trypan Blue, the number of cells was counted, and the cells were adjusted to 2×10^6 cells/mL by addition of IMDM+2% FBS.
TfR436 and a human IgG1 antibody used as a negative control were each diluted with IMDM+2% FBS to an antibody concentration of […]. MethoCult™ H4534 Classic WithoutEPO (STEMCELL TECHNOLOGIES) was dispensed into seven 14-mL round bottle tubes in an amount of 3 mL each, and 300 jut of the above-prepared PBMC was then added thereto. Thereafter, an antibody-diluted solution or 3.3 μL of IMDM+2% FBS (control) was further added thereto, followed by full mixing. Thereafter, the reaction mixture was seeded on two 35-mm culture dishes in an amount of 1 mL each. This mixture was cultured at 37° C. in a 5% CO2 incubator for 14 days. After completion of the culture, the 35-mm culture dishes were observed under a microscope, and the number of the formed BFU-E or CFU-E colonies was then counted. The colony formation percentage with respect to the number of colonies obtained by a culture without addition of antibodies was then calculated.
Hematopoietic stem cells derived from patients administered with HYDREA (registered trademark) were used as PV patient-derived hematopoietic stem cells, and the activity of TfR436 to inhibit erythroblast colony formation was examined by the same method as that of Example 3. Besides, HYDREA (registered trademark) was administered as hydroxycarbamide (also referred to as “hydroxyurea”) to the patients via oral administration at a daily dose of 500 mg to 2000 mg once or divided over twice or three times. As a result, erythroblast colony formation was inhibited by addition of 100 ng/mL or more TfR436 (Table 2).

T1 sequence (P02786 89-760): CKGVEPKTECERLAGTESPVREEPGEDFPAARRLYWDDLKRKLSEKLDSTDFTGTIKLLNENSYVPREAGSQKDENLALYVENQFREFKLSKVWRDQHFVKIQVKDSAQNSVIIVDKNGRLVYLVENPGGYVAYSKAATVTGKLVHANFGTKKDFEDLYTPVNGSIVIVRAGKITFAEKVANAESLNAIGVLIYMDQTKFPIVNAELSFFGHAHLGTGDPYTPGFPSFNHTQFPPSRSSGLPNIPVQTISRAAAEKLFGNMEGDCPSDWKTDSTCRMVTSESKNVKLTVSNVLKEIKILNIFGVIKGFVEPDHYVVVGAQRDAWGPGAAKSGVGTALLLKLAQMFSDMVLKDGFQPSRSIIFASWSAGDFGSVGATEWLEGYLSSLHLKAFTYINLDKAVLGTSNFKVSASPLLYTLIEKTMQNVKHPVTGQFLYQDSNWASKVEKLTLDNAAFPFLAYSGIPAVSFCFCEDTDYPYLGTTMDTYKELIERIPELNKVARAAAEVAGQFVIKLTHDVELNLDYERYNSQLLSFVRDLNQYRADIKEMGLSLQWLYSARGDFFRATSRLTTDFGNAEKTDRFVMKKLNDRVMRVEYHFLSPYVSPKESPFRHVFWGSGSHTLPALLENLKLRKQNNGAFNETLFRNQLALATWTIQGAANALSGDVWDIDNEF

B1: TfR436: anti-human transferrin receptor antibody, VH SEQ ID NO: 7 and VL SEQ ID NO: 8, described in WO2014/073641; called PPMX-T003 in Tables 3 and 4 (antibody, listed as Homo sapiens, V domains shown)
VH: DVQLVQSGGGVVQPGRSLRLSCAASGFPFKSYGMHWVRQAPGKGLEWVAVISYDGSNKYYADSVKGRFTISRDNSKNTLYLQMNSLRGEDTAVYYCARDSNFWSGYYSPVDVWGQGTTVTVSS
VL: NFMLTQPHSVSESPGKTVTISCTRSSGSIASNSVQWYQQRPGSAPITVIYEDTQRPSGVPDRFSGSIDSSSNSASLTISGLQTEDEADYYCQSYDSAYHWVFGGGTKLAVL
inhibition of the binding of Tf-TfR [1]: completely inhibited
erythroblast colony formation ([2]; 100 ng/mL or more): inhibited
colony formation percentage with respect to culture without addition of antibodies ([2]; HYDREA-administered pt No. 1, 10 ng/mL): 109.1%
colony formation percentage with respect to culture without addition of antibodies ([2]; HYDREA-administered pt No. 1, 100 ng/mL): 0.0%
colony formation percentage with respect to culture without addition of antibodies ([2]; HYDREA-administered pt No. 1, 1000 ng/mL): 0.0%
colony formation percentage with respect to culture without addition of antibodies ([2]; HYDREA-administered pt No. 23, 10 ng/mL): 100.0%
colony formation percentage with respect to culture without addition of antibodies ([2]; HYDREA-administered pt No. 23, 100 ng/mL): 0.0%
colony formation percentage with respect to culture without addition of antibodies ([2]; HYDREA-administered pt No. 23, 1000 ng/mL): 0.0%
colony formation percentage with respect to culture without addition of antibodies ([2]; HYDREA-administered pt No. 24, 10 ng/mL): 68.6%
colony formation percentage with respect to culture without addition of antibodies ([2]; HYDREA-administered pt No. 24, 100 ng/mL): 0.0%
colony formation percentage with respect to culture without addition of antibodies ([2]; HYDREA-administered pt No. 24, 1000 ng/mL): 0.0%
colony formation percentage with respect to culture without addition of antibodies ([2]; HYDREA-administered pt No. 26, 10 ng/mL): 148.9%
colony formation percentage with respect to culture without addition of antibodies ([2]; HYDREA-administered pt No. 26, 100 ng/mL): 10.6%
colony formation percentage with respect to culture without addition of antibodies ([2]; HYDREA-administered pt No. 26, 1000 ng/mL): 0.0%
colony formation percentage with respect to culture without addition of antibodies ([2]; HYDREA-administered pt No. 27, 10 ng/mL): 152.4%
colony formation percentage with respect to culture without addition of antibodies ([2]; HYDREA-administered pt No. 27, 100 ng/mL): 0.0%
colony formation percentage with respect to culture without addition of antibodies ([2]; HYDREA-administered pt No. 27, 1000 ng/mL): 0.0%
colony formation percentage with respect to culture without addition of antibodies ([2]; HYDREA-administered pt No. 28, 10 ng/mL): 112.5%
colony formation percentage with respect to culture without addition of antibodies ([2]; HYDREA-administered pt No. 28, 100 ng/mL): 0.0%
colony formation percentage with respect to culture without addition of antibodies ([2]; HYDREA-administered pt No. 28, 1000 ng/mL): 0.0%
